Results reported in the supplement of paper PMC10567573.
± gives the standard deviation.

Experiment: protein stability index of a GFP-peptide fusion (GPS, HEK-293T) (PSI 1-6); higher = more stable
[1] = treatment: DMSO, c terminus: a fixed tail appended
[2] = treatment: MLN4924 1 uM, 8 h, c terminus: a fixed tail appended
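Note: 24-mer peptide tiles fused after GFP, lentivirally expressed, FACS-sorted into six equal bins by GFP/DsRed ratio, decoded by Illumina sequencing, PSI is the read-weighted mean bin number.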

Sequence PLMPGMPPVMPGMPPGLHHQRKYT [ZNF207] has a protein stability index [1] of 3.91 ± 0.39 and a protein stability index [2] of 4.11 ± 0.18.
For PASGSTFRGRRDVSGSWERDQQVE [RETREG3], the protein stability index [1] was 4.67 ± 0.22 and the protein stability index [2] was 4.86 ± 0.28.
Sequence SPAPLDTCPSSSTASSISSSGGSS [DYRK1B] has a protein stability index [1] of 5.33 ± 0.16 and a protein stability index [2] of 5.35 ± 0.088.
In the case of NCRLSEGDVMHLSQSPSVSQLSVL [PRAME], the protein stability index [1] is reported as 2.29 ± 0.63 and the protein stability index [2] is reported as 2.37 ± 0.065.
Sequence TSTRYEQPKCDNTARAHPAKARDL [SMOC2] has a protein stability index [1] of 4.85 ± 0.19 and a protein stability index [2] of 5.17 ± 0.27.
In the case of LPLALVTWVPMFLSTLLAPYQALR [SOAT2], the protein stability index [1] is reported as 2.93 ± 0.6 and the protein stability index [2] is reported as 2.95 ± 0.35.
KSKHAPRGTHLWEFIRDILIHPEL [ELF3] gave a protein stability index [1] of 2.6 ± 0.75 and a protein stability index [2] of 2.26 ± 0.36.
FVVGNCLQIASDSHQYDRIYCGAG [PCMTD1] showed a protein stability index [1] of 2.45 ± 0.38 and a protein stability index [2] of 2.62 ± 1.
WAIPNRQINDGMGGDGDDMEIFME [BEX3] gave a protein stability index [1] of 4.31 ± 0.3 and a protein stability index [2] of 4.22 ± 0.26.
With SCEVSEENCERREAFWAEWKDLTL [TCAP] the protein stability index [1] was 4.16 ± 0.2 and the protein stability index [2] was 4.21 ± 0.39.
Sequence RPRKLYKHSSTSSRIAKGGVDHTK [BTBD10] has a protein stability index [1] of 4.06 ± 0.21 and a protein stability index [2] of 4.12 ± 0.23.
RDQGSSALSGVGGIRLPNGKLKCD [IKZF1] gave a protein stability index [1] of 4.66 ± 0.33 and a protein stability index [2] of 4.68 ± 0.32.
In the case of RERLGEIHTLPLPASLKAYLLYQ [SPSB1], the protein stability index (treatment: DMSO, c terminus: native) is reported as 2.3 ± 0.32 and the protein stability index (treatment: MLN4924 1 uM, 8 h, c terminus: native) is reported as 2.26 ± 0.27.
AAMLRGQSDVGVAVFENKIYVVGG [KLHL13] gave a protein stability index [1] of 2.07 ± 0.12 and a protein stability index [2] of 2.46 ± 0.55.
MEALAAETNLLLAQKQRLERALDA [TEKT4] showed a protein stability index [1] of 4.13 ± 0.4 and a protein stability index [2] of 4.13 ± 0.38.
QGIGSKIIKKVAEVALDKGCSQFR [SAT2] gave a protein stability index [1] of 2.44 ± 0.68 and a protein stability index [2] of 2.27 ± 0.36.
Sequence ASLGLTQTQVKIWFQNKRSKFKKL [DLX1] has a protein stability index [1] of 2.37 ± 0.19 and a protein stability index [2] of 2.61 ± 0.47.
For SVHNDLWESWFVPDPAGIFKLNHH [GLT8D2], the protein stability index [1] was 2.38 ± 0.18 and the protein stability index [2] was 2.53 ± 0.22.
KQPDLTMVRKIGCYAAMKKKIYAM [GAN] showed a protein stability index [1] of 2.28 ± 0.45 and a protein stability index [2] of 2.21 ± 0.14.
In the case of QREEHELVHVMERSLSPSLSSVDM [RAD54B], the protein stability index [1] is reported as 4.62 ± 0.31 and the protein stability index [2] is reported as 4.76 ± 0.11.
In the case of GLSTEAEQPFIPVEVLVDLFLKEG [PRAME], the protein stability index [1] is reported as 3.05 ± 0.11 and the protein stability index [2] is reported as 3.3 ± 0.33.
For RERIQILKTSEVTQHLPRECLPEN [PTPN9], the protein stability index [1] was 4.46 ± 0.19 and the protein stability index [2] was 4.36 ± 0.31.
Sequence PAEQAFWCLVQICEKYLPGYYSEK [TBC1D10A] has a protein stability index [1] of 3.37 ± 0.55 and a protein stability index [2] of 3.46 ± 0.48.
In the case of ESRIVEQENAIQTMELRNYFSLYC [SNX8], the protein stability index [1] is reported as 2.62 ± 0.3 and the protein stability index [2] is reported as 2.61 ± 0.19.
